Measured values as given in patent US20230233645A1, “EFFECTIVE TREATMENTS FOR VASCULAR ASSOCIATED MACULOPATHY, SEVERE MACULOPATHY, LATE-STAGE MACULOPATHY, AND ABERRANT CHORIOCAPILLARIS” (UNIVERSITY OF UTAH RESEARCH FOUNDATION, priority 2011, published 2023).

Experiments:
HTRA1 = HTRA1 (Homo sapiens, UniProt Q92743); conditions: binds covalently to the active-site serine of HTRA1; cited from earlier work
DQ elastin = experiment: In vitro elastin degradation assay using DQ elastin; format: biochemical; conditions: DQ elastin substrate
Method: Therefore, studies were performed to determine whether HTRA1 degrades elastin, a major component of Bruch's membrane. Recombinant HTRA1 was incubated with dye-labeled elastin at 37° C. for two hrs and the fluorescence of the released elastin peptides was monitored at 513 nm. […] In an additional positive control assay, HTRA1 elastase activity was measured by fluorescence using various concentrations of elastase enzyme starting with 0.04 ng/well of porcine pancreatic elastase and 100 ng/well of ProteaImmun HtrA1. DQ Elastin substrate was 25 ug/ml.
Recombinant HtrA1 protein expressed and purified from Sf9 cells was purchased from ProteaImmun (Cat. #30600103). The HtrA1 elastase activity was measured using a fluorescent EnzChekElastase Assay Kit from Invitrogen (Cat. #E12056) using the protocol provided, except substrate concentration was 12.5 µg/mL. HtrA1 concentration was titrated from 200-12.5 ng/well in two-fold dilutions. Activity was measured in 30-minute increments for a total of 2 hours.
The explanation for the elastin degradation in both the Bruch's membrane and the choroid vessels in the HTRA1 mice is that the protease activity of overexpressed HTRA1, which is secreted from RPE, caused the degeneration. Since HTRA1 was not known to have elastase activity, an in vitro elastin degradation assay was performed using DQ elastin, a soluble elastin labeled with quenched BODIPY FL dye, as a substrate. Purified recombinant human HTRA1 degraded elastin with a specific activity of 4.4±0.8 u/mg (n=3). […] To eliminate the possibility that the depletion of the elastic layers of the choroidal vessels and Bruch's membrane was the result of downregulation of elastin expression, we analyzed the protein level of soluble elastin in the RPE/choroid of hHTRA1^+ and WT mice by western blot. […] This is similar to what has been observed in human donors with AMD and with aberrant choriocapillaris lobules.

Sequence of HTRA1 (Q92743 23-480): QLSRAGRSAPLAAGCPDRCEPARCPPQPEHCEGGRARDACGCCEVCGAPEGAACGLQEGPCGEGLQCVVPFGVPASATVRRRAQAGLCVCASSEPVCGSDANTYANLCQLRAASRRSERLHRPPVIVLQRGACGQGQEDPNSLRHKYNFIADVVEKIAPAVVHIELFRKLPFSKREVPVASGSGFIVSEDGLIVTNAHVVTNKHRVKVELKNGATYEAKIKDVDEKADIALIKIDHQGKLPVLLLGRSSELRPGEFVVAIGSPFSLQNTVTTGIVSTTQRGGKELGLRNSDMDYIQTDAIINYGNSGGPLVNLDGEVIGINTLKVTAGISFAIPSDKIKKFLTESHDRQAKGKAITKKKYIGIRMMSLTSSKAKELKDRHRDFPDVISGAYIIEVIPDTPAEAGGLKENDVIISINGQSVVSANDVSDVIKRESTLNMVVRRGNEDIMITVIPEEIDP

| Substance | IC50 (HTRA1) [nM] | specific activity of elastin degradation (DQ elastin) [u/mg] | elastase activity, times less than that of porcine pancreas elastase (DQ elastin) [times] |
| --- | --- | --- | --- |
| DPMFKLboroV | 2600 |  |  |
| porcine pancreas elastase: reference elastase enzyme |  | 135±5.5 |  |
| recombinant human HTRA1: purified recombinant human HTRA1 serine protease |  | 4.4±0.8 | ~30 |
